We go through 17 molecules from patent publication US20180057604A1 (Genentech, published 2018).

T1: cyno TfR extracellular domain (analogous construct to human TfR ecd) (cynomolgus monkey, UniProt Q5RDH6 87-760 (Pongo abelii entry))
T1 construct: also called cynoTfR ecd
T1 chain: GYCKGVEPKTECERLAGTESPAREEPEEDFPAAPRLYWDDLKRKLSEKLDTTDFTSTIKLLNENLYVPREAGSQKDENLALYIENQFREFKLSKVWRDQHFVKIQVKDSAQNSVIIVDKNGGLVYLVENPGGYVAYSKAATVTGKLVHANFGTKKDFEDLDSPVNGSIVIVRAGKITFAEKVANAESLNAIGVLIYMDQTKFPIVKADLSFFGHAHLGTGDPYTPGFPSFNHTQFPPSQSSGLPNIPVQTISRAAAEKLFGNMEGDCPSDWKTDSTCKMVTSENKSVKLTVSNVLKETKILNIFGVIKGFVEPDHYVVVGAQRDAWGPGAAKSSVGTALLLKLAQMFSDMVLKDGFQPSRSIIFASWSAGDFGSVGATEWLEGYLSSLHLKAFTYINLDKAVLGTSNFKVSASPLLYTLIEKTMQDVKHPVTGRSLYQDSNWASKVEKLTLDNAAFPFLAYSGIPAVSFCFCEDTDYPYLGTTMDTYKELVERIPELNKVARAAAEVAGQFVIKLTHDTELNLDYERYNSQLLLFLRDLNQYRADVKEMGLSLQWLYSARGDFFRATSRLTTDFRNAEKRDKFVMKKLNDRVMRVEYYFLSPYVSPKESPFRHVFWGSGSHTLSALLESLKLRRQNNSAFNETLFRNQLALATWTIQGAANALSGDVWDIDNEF

B1: 5644 (antibody, V domains shown)
VH: QLQLQESGPGLVKPSETLSLTCTVSGGSISSSSYYWGWIRQPPGKGLEWIGSIYYSGSTYYNPSLKSRVTISVDTSKNQFSLKLSSVTAADTAVYYCARVGHGISYFDLWGRGTLVTVSS
VL: EIVLTQSPATLSLSPGERATLSCRASQSVSSYLAWYQQKPGQAPRLLIYDASKRATGIPARFSGSGSGTDFTLTISSLEPEDFAVYYCQQVYTWPPRTFGGGTKVEIK
notes: anti-BACE1 IgG
B2: 5260 (antibody, V domains shown)
VH: QVQLVQSGAEVKKPGSSVKVSCKASGGTFSSYAISWVRQAPGQGLEWMGSIIPIFGTANYAQKFQGRVTITADESTSTAYMELSSLRSEDTAVYYCARSGGTKYGMLDVWGQGTMVTVSS
VL: EIVMTQSPATLSVSPGERATLSCRASQSVGSNLAWYQQKPGQAPRLLIYGASTRATGIPARFSGSGSGTEFTLTISSLQSEDFAVYYCQQAVVWPPRTFGGGTKVEIK
notes: anti-BACE1 IgG
B3: 5571 (antibody, V domains shown)
VH: B2 VH with S50N, M115V
VL: B2 VL with G30S, A91L, V92I, V93L
notes: anti-BACE1 IgG
B4: 5883 (antibody, V domains shown)
VH: B2 VH with S50G, F55G, T57G
VL: B2 VL with G30S, A91L, V92I, V93L
notes: anti-BACE1 IgG
B5: 5572 (antibody, V domains shown)
VH: B2 VH
VL: B2 VL with A91L, V92Y, V93T
notes: anti-BACE1 IgG
B6: hu15G11.v1 (antibody, V domains shown)
VH: EVQLVQSGAEVKKPGASVKVSCKASGYTFTSYWMHWVRQAPGQRLEWMGEINPTNGRTNYIEKFKSRVTITRDTSASTAYMELSSLRSEDTAVYYCARGTRAYHYWGQGTMVTVSS
VL: DIQMTQSPSSLSASVGDRVTITCRASDNLYSNLAWYQQKPGKAPKLLLYDATNLADGVPSRFSGSGSGTDYTLTISSLQPEDFATYYCQHFWGTPLTFGQGTKVEIK
notes: IgG; HC 48 M, 67 V, 69 I, 71 R, 73 T
B7: hu15G11.v2 (antibody, V domains shown)
VH: B6 VH with R72V
VL: B6 VL
notes: IgG; HC 48 M, 67 V, 69 I, 71 V, 73 T
B8: hu15G11.v4 (antibody, V domains shown)
VH: B6 VH with R72V
VL: B6 VL with A43S, L48V
notes: as for B7
B9: hu15G11.v3 (antibody, V domains shown)
VH: B6 VH
VL: B6 VL with A43S, L48V
notes: as for B6
B10: hu7A4.v1 (antibody, V domains shown)
VH: EVQLVQSGAEVKKPGASVKVSCKASGYTFTDYAMHWVRQAPGQGLEWMGGISTYFGRTNYNQKFKGRVTMTRDTSISTAYMELSRLRSDDTAVYYCARGLSGNYVMDYWGQGTTVTVSS
VL: DIVMTQSPDSLAVSLGERATINCRASESVDSYGNSFMHWYQQKPGQPPKLLIYRASNLESGVPDRFSGSGSGTDFTLTISSLQAEDVAVYYCQQSNEGPPTFGQGTKLEIK
notes: IgG
B11: hu7A4.v4 (antibody, V domains shown)
VH: B10 VH with A24G, R72V
VL: B10 VL
notes: IgG
B12: hu7A4.v2 (antibody, V domains shown)
VH: B10 VH with A24G
VL: B10 VL
notes: IgG
B13: hu7A4.v6 (antibody, V domains shown)
VH: B10 VH with A24G
VL: B10 VL with V62I
notes: IgG
B14: hu7A4.v3 (antibody, V domains shown)
VH: B10 VH with R72V
VL: B10 VL
notes: IgG
B15: hu7A4.v8 (antibody, V domains shown)
VH: B10 VH with A24G, R72V
VL: B10 VL with V62I
notes: IgG
B16: hu7A4.v14 (antibody, V domains shown)
VH: B10 VH with A24G, R72V
VL: B10 VL with V62I, G98A
notes: IgG
B17: hu7A4.v13 (antibody, V domains shown)
VH: B10 VH with A24G, R72V
VL: B10 VL with G98A
notes: IgG

Positions count from the first letter of the chain named.

T3 sequence (single chain, as listed by the source limits assumed): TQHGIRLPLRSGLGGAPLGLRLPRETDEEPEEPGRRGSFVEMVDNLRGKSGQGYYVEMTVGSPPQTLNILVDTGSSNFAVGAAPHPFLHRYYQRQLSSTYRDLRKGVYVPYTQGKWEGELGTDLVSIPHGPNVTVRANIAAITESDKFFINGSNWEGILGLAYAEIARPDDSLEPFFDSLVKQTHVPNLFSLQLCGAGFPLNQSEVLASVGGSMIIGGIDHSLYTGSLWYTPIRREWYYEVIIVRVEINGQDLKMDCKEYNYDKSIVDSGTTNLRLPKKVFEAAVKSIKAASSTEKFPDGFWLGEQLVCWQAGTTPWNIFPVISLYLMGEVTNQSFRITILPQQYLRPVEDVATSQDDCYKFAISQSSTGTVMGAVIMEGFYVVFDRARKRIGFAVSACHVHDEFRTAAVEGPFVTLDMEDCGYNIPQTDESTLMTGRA
Sequence of BACE1 in primary mouse cortical neurons (P56818 46-501): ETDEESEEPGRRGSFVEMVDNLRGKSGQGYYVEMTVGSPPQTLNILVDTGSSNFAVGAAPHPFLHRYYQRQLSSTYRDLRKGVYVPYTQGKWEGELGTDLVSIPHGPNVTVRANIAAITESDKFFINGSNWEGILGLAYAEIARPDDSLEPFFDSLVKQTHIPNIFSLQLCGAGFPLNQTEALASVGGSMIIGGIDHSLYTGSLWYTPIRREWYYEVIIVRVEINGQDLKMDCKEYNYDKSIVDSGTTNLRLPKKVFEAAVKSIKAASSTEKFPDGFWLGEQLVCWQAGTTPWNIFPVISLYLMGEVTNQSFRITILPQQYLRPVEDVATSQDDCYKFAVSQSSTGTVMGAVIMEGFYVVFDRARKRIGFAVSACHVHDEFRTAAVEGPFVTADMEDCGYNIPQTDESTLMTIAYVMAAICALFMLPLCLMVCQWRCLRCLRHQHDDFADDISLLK

The first assay addresses murine BACE1 ECD. The assay is described as follows: cell-based or functional assay.
In the case of B1, the “% inhibition of BACE1 activity, short FRET substrate” value (shortened to “% inhibition of BACE1 activity”) was determined as 63%.
The same measure, in the same setting: next, B2: -35%.
Turning to B3, the “% inhibition of BACE1 activity” value is -175%.
B4: the “% inhibition of BACE1 activity” value is -275%.
As to B5, the “% inhibition of BACE1 activity” value stood at 77%.

A further assay concerns the target human BACE1 ECD. Put plainly: cell-based or functional assay.
As for B1, the “% inhibition of BACE1 activity” value was found to be 65%.
With B2, the “% inhibition of BACE1 activity” value is -54%.
In the case of B3, the “% inhibition of BACE1 activity” value is -89%.
As for B4, the “% inhibition of BACE1 activity” value is -129%.
Regarding B5, the “% inhibition of BACE1 activity” value was 75%.

The next assay has as its target BACE1 in primary mouse cortical neurons (mouse, UniProt P56818 46-501). Put plainly: cell-based or functional assay.
For B1, the “IC50, Abeta x-40 in mouse cortical neurons” value turned out to be 8.33 nM and the “maximal % inhibition of Abeta x-40” value stood at 72%.
In the same order, the values of B2 are 46.7 nM and 74%.
With B3, the “IC50, Abeta x-40 in mouse cortical neurons” value was 7.11 nM and the “maximal % inhibition of Abeta x-40” value was determined as 84%.
On to B4, for which the “IC50, Abeta x-40 in mouse cortical neurons” value is 9.11 nM and the “maximal % inhibition of Abeta x-40” value is 82%.
In the case of B5, the “IC50, Abeta x-40 in mouse cortical neurons” value was determined as 27.1 nM and the “maximal % inhibition of Abeta x-40” value came out at 73%.

The target in the next assay is T2, murine BACE1 ECD.
T2 construct: analyte of the Octet assay (200 nM) and enzyme of the first short substrate assay
T2 sequence (single chain, as listed by the source limits assumed): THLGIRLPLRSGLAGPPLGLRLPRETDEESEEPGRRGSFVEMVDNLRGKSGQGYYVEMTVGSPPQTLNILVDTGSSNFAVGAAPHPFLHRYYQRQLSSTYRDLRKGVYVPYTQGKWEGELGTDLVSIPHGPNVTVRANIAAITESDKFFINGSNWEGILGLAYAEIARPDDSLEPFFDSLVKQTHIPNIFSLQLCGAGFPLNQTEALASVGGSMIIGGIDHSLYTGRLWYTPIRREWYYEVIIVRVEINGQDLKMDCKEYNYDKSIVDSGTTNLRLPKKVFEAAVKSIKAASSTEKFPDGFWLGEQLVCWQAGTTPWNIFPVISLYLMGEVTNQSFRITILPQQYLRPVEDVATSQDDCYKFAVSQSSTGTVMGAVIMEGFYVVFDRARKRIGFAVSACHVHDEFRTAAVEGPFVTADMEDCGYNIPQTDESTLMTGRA
Put plainly: Octet, pH 7.5. (In general: BLI is a label-free optical method that tracks binding on a fibre tip over time.)
The Kd is the concentration at which binding is half-saturated. A lower Kd goes with tighter binding. Regarding B1, the dissociation constant (Kd) was 17 nM.
Same read-out and setting: next, B2: 94 nM; B3: 5.4 nM.
The same measure, in the same setting: next, B4: 6.6 nM.
The molecule B5 had a Kd of 2.5 nM.

Another assay addresses T3, human BACE1 ECD.
T3 construct: analyte of the Octet assay (200 nM) and enzyme of the first short substrate assay; also called human BACE1 extracellular domain
Put plainly: Octet, pH 7.5.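 Also: antibodies captured on anti-human capture biosensor tips, dissociation followed in PBS with BSA buffer, kinetics fitted with a one-to-one binding model.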
With B1, the Kd is 15 nM.
B2: the Kd came out at 94 nM.
Still for that read-out and setting: next, B3: 5 nM; B4: 4.6 nM; B5: 0.86 nM.

The next assay concerns the target T2, murine BACE1 ECD. The assay is described as follows: Octet, pH 5.0.
The molecule B1 returned a Kd of 11 nM.
B2: binding was characterised by a dissociation constant (Kd) of 180 nM.
As for B3, the Kd came out at 8.4 nM.
As for B4, binding was characterised by a dissociation constant (Kd) of 11 nM.
On the same count and under the same terms, to B5 belongs 2 nM.

A further assay concerns the target T3, human BACE1 ECD. Put plainly: Octet, pH 5.0.
Regarding B1, binding was characterised by a dissociation constant (Kd) of 12 nM.
B2 returned a dissociation constant Kd of 120 nM.
With B3, the dissociation constant (Kd) turned out to be 8.2 nM.
B4 returned a dissociation constant (Kd) of 8.7 nM.
With B5, the equilibrium dissociation constant (Kd) came out at 1.5 nM.

For the next assay, the target named is T4, human TfR extracellular domain with N-terminal His tag (human, UniProt P02786 89-760).
T4 construct: Biotinylated in some assays; also called huTfR; HuTfR
T4 sequence (P02786 89-760 G142S): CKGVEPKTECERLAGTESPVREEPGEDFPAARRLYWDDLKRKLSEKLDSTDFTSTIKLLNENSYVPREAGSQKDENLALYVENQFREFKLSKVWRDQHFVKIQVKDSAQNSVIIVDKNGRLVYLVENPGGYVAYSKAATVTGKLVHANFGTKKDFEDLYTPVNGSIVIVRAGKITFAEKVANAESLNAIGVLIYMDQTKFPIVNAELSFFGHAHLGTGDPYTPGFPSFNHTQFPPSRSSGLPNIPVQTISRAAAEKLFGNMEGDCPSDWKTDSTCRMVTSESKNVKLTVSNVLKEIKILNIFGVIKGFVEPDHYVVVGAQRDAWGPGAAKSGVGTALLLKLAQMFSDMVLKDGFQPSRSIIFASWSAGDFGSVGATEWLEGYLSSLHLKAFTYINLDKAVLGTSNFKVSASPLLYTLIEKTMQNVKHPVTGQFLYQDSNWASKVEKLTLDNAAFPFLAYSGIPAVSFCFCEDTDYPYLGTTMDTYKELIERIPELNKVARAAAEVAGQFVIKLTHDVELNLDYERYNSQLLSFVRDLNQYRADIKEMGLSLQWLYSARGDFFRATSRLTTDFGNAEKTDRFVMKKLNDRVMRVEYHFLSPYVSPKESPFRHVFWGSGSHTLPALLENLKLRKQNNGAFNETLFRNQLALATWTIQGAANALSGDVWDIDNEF
Put plainly: SPR, IgG.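 Also: His-tagged TfR captured via immobilized anti-His antibody on a CM5 chip, antibody injected in 3-fold dilution series by single cycle kinetics, 1:1 Langmuir or steady-state fit.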
In turn, B6 came in with a Kd of 5.12 nM.
The molecule B7 came in with an equilibrium dissociation constant (Kd) of 9.35 nM.
In turn, B8 displayed a dissociation constant (Kd) of 3.89 nM.
Same read-out and setting: to B9 belongs 4.12 nM; to B10, 0.279 nM; to B11, 0.612 nM.
Molecule B12 had an equilibrium dissociation constant (Kd) of 0.232 nM.
Still for that read-out and setting: next, B13: 0.26 nM; B14: 0.543 nM.

Another assay concerns the target T1, cyno TfR extracellular domain …. The assay is described as follows: SPR, IgG.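 Also: His-tagged TfR captured via immobilized anti-His antibody on a CM5 chip, antibody injected in 3-fold dilution series by single cycle kinetics, 1:1 Langmuir or steady-state fit.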
Take B6: the dissociation constant (Kd) is 10.1 nM.
On the same count and under the same terms, to B7 belongs 17.6 nM.
B8 came in with a dissociation constant Kd of 7.04 nM.
The molecule B9 gave a Kd of 5.34 nM.
For B10, the Kd turned out to be 1.67 nM.
Still for that read-out and setting: to B11 belongs 3.83 nM.
B12: the Kd came out at 1.22 nM.
For the molecule B13, the Kd came to 1.06 nM.
B14: the Kd turned out to be 2.9 nM.

For a further assay, the target named is T4, human TfR extracellular domain with …. Put plainly: SPR, IgG.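 Also: His-tagged TfR captured via immobilized anti-His antibody on a CM5 chip, antibody injected in 3-fold dilution series by single cycle kinetics, 1:1 Langmuir or steady-state fit.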 This is another data set of the same source. Background: Surface plasmon resonance follows binding to a sensor surface in real time, without labels.
Take B15: the Kd is 1.29 nM.
As for B16, the Kd turned out to be 1.19 nM.
Same read-out and setting: next, B17: 1.36 nM.

The next assay addresses T1, cyno TfR extracellular domain …. The assay is described as follows: SPR, IgG.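 Also: His-tagged TfR captured via immobilized anti-His antibody on a CM5 chip, antibody injected in 3-fold dilution series by single cycle kinetics, 1:1 Langmuir or steady-state fit.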 This is another data set of the same source.
B16 returned a dissociation constant Kd of 15.7 nM.
As for B17, the Kd worked out at 11.4 nM.

In the next assay the target is T5, human BACE1 (R&D Systems) (human, UniProt P56817).
T5 construct: recombinant, commercial (R&D Systems)
T5 sequence (P56817 22-457 limits assumed): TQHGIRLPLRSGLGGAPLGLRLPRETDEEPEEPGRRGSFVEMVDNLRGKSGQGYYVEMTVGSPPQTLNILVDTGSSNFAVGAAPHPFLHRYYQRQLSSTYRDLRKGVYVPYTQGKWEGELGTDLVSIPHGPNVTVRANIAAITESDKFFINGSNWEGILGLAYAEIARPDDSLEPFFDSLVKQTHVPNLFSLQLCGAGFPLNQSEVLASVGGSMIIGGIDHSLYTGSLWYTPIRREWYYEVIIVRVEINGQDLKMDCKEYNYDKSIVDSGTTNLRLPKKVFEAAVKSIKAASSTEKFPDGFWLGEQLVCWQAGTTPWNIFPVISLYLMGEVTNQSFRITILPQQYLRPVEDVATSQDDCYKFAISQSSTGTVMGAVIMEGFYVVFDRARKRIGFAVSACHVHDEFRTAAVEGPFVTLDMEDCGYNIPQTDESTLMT
The assay is described as follows: SPR (Biacore).
Molecule B1 yielded a Kd of 13.3 nM.
B2 gave a Kd of 14.5 nM.
On the same count and under the same terms, to B3 belongs 7.31 nM.
Still for that read-out and setting: to B4 belongs 6.04 nM.
In turn, B5 showed an equilibrium dissociation constant (Kd) of 2.82 nM.

The next assay addresses BACE1 (HTRF long substrate and FRET short substrate assays of Example 9D). The assay is described as follows: cell-based or functional assay.
As for B1, the “EC50, FRET short substrate” value turned out to be 8.47 nM and the “EC50, HTRF long substrate” value is 8.75 nM.
For the molecule B2, the “EC50, FRET short substrate” value was found to be 36.8 nM and the “EC50, HTRF long substrate” value amounted to 720 nM.
In the same order, the values of B3 are 0.417 nM and 5.06 nM.
Take B4: the “EC50, FRET short substrate” value was 0.607 nM and the “EC50, HTRF long substrate” value worked out at 5.93 nM.
In the same order, the values of B5 are 15.9 nM and 1.28 nM.
